pKd, pKi: −log10 of the molar value.
Legend:
CB1 receptor = target: T1, CB1 receptor (Homo sapiens, UniProt P21554); experiment: CB1 receptor FLIPR dose response in CB1-transfected CHEM-1 cells; assay type: cell-based; settings: pHS vector (FIG. 10D)
T1 construct: ER export signal […]; expressed in transfected cells; host or cells: CHEM-1 (RBL-2H3) cells, pHS vector
Experimental: FIG. 10D is a graph depicting the agonist-induced CB1 receptor FLIPR® dose response for CB1-transfected CHEM-1 cells using the pHS vector.
Cells (50,000/well) were seeded in a 96 well FLIPR® plate (clear bottom, black wall TC plate) the day before the experiment, and then loaded with fluorescent calcium dye Fluo-4 or Indo-1 (Molecular Probes) and incubated for 30 minutes at 37° C. in the dark with Pluronic F-127 and Probenecid in HBSS buffer (with Ca^2+ and Mg^2+). The cells were then washed twice with HBSS and read for calcium mobilization after the ligand addition on FLEX Station or FLIPR®. The loading efficiency and integrity of the Ca^2+ flux assay were assessed by comparing the signaling response to ionomycin treatment before and after each run.

CXCR2 [1] = target: T2, CXCR2 (Homo sapiens, UniProt P25025); experiment: CXCR2 membrane radioligand (125I-Groα) saturation binding; settings: membranes of CHO cells transfected with CXCR2, pcDNA3 vector; 125I-Groα 0-2 nM (FIG. 7A)
T2 construct: expressed in transfected cells; host or cells: CHO cells, pcDNA3 vector, crude membranes of stably transfected cells
T2 sequence (P25025 1-360): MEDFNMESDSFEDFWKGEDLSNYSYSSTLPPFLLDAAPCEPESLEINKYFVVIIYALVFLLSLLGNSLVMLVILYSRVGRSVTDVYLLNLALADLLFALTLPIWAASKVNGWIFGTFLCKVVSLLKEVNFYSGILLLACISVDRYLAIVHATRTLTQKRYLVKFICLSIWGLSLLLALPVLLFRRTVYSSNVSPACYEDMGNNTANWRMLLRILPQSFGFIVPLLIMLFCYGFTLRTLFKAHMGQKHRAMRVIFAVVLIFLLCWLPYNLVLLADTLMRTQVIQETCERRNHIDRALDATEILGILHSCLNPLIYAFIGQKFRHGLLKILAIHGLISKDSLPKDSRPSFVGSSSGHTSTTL
Experimental: (§1) FIG. 7A is a graph depicting CXCR2 membrane radioligand saturation binding for membranes of CHO cells transfected with CXCR2 encoded by the mammalian expression vector pcDNA3. Specifically, 5 μg of GPCR membrane preps were incubated with increasing concentrations (0-2 nM) of ^125I-labeled ligand Groα (PerkinElmer, Wellesley, Mass.) in the absence or presence of an excess amount of cold ligand Groα.
as §1, with “7B” for “7A”, “CHEM-1” for “CHO”, “the” for “the mammalian”, “pHS.” for “pcDNA3.”, “preparation was” for “preps were”
1-5 μg/well of crude membrane protein was thawed and combined with 50,000 to 100,000 cpm of radioligand (2200 Ci/mmol) and cold competitors in assay buffer (50 mM Hepes, 5 mM MgCl2, 1 mM CaCl2, 0.2% BSA) for 2 hours at 25° C. Reactions were performed in 96-well GF/C glass fiber filter plates (PerkinElmer, Cat. No. 6005174, Wellesley, Mass.). […] The filter plate was then dried and counted on a Microbeta liquid scintillation counter (PerkinElmer, Wellesley, Mass.). […]

CXCR2 [2] = target: T2, CXCR2; experiment: CXCR2 membrane radioligand (125I-Groα) competition binding; settings: two site binding curve, FIG. 8A (pcDNA3/CHO membranes); 0.5 nM 125I-Groα; matches high affinity sites of FIG. 8B
Experimental: After 2 hours of incubation at room temperature, membranes were harvested to a 96-well GF/C filter plate, dried and counted using a Microbeta counter.
1-5 μg/well of crude membrane protein was thawed and combined with 50,000 to 100,000 cpm of radioligand (2200 Ci/mmol) and cold competitors in assay buffer (50 mM Hepes, 5 mM MgCl2, 1 mM CaCl2, 0.2% BSA) for 2 hours at 25° C. Reactions were performed in 96-well GF/C glass fiber filter plates (PerkinElmer, Cat. No. 6005174, Wellesley, Mass.). Binding was terminated by adding 100 μl/well of wash buffer (50 mM Hepes, pH 7.4, 500 mM NaCl, 0.1% BSA) and aspiration through the plate on a cell harvester, followed by three 0.2 ml washes with wash buffer. The filter plate was then dried and counted on a Microbeta liquid scintillation counter (PerkinElmer, Wellesley, Mass.).

T1 sequence (P21554 whole entry): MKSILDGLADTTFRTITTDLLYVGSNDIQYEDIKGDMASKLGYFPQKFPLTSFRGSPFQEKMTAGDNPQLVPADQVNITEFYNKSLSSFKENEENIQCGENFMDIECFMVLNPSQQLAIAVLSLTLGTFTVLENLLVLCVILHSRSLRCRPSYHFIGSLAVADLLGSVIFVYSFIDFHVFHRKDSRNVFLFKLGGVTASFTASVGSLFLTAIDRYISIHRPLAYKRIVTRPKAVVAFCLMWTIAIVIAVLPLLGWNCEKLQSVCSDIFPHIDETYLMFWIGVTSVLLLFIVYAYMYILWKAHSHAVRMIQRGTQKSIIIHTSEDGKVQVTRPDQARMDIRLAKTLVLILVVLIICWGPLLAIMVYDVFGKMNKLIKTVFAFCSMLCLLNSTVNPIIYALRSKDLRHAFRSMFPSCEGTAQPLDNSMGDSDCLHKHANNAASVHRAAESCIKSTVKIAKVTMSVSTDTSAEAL

| Compound | agonist type (efficacy) in FLIPR dose response (CB1 receptor) | pKd (CXCR2 [1]) | pKi (CXCR2 [2]) |
| --- | --- | --- | --- |
| CCCCCCC(C)(C)c1ccc([C@@H]2C[C@H](O)CC[C@H]2CCCO)c(O)c1 [CP55940] | partial agonists |  |  |
| Groα |  | 9.83 | 9.66 |
